Results as given in publication PMC5015425, “Structural insights into Parkin substrate lysine targeting from minimal Miro substrates” (Scientific Reports, 2016).

Molecular target: the molecule itself
Assay: SEC-MALS; S200 10/300 GL column, 25 mM HEPES pH 7.4, 200 mM NaCl, 0.5 mM TCEP, 1 mM MgCl2, 0.5 mL/min, 10 °C; injected: hMiro1-C 16 mg/mL, hMiro2-C 7 mg/mL, hMiro1-CM 18 mg/mL

B1: human Miro1 cGTPase domain, aa 411-592 (hMiro1-C) (domain or fragment, UniProt Q8IXI2 411-592, looked up)
chain: KKQTQRNVFRCNVIGVKNCGKSGVLQALLGRNLMRQKKIREDHKSYYAINTVYVYGQEKYLLLHDISESEFLTEAEIICDVVCLVYDVSNPKSFEYCARIFKQHFMDSRIPCLIVAAKSDLHEVKQEYSISPTDFCRKHKMPPPQAFTCNTADAPSKDIFVKLTTMAMYPHVTQADLKSSTF
notes: human Miro1 (RhoT1), C-terminal GTPase (cGTPase) domain, residues 411-592; Dimer in the crystal and in solution; Details of expression are in the Supplementary Methods; also called hMiro1-CD; hMiro1 cGTPase; source: bacteria, purified (TALON beads, HiTrap S cation exchange, Superdex 200 when necessary)
stoichiometry N: 2
